Legend:
[1] = molecular target: dCas9 D10A;H840A (UniProt Q99ZW2); test: single-molecule TIRF; details: 3'-biotin on strand 2, SPR: 25 mM Tris-HCl pH 7.6, 50 mM NaCl, 5 mM MgCl2, 0.25 mM DTT, 0.2 mM EDTA, 0.005% P20, 20 C, single-molecule: 25 mM Tris-HCl pH 7.9, 10 mM Mg acetate
[2] = molecular target: DnaB helicase (Escherichia coli) (UniProt P0ACB0)
[3] = molecular target: DnaB helicase (Escherichia coli) (UniProt P0ACB0); remark: listed apart in the source
[4] = molecular target: DnaB (Escherichia coli) (UniProt P0ACB0); test: SPR; details: cited from earlier work
Chain of DnaB (Escherichia coli) (P0ACB0 2-471): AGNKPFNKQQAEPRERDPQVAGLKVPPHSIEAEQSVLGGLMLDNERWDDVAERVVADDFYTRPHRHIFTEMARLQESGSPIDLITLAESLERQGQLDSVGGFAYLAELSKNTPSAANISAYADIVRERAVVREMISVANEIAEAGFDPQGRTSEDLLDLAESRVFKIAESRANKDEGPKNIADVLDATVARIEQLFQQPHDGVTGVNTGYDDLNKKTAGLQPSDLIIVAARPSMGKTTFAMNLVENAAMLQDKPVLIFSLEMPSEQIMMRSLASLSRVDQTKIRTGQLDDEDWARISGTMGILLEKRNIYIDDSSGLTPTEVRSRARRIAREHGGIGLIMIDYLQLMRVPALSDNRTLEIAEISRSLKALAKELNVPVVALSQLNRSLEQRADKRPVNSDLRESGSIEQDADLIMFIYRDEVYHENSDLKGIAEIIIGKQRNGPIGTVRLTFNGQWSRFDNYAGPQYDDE

Chain of DnaB helicase (Escherichia coli) (P0ACB0 whole entry): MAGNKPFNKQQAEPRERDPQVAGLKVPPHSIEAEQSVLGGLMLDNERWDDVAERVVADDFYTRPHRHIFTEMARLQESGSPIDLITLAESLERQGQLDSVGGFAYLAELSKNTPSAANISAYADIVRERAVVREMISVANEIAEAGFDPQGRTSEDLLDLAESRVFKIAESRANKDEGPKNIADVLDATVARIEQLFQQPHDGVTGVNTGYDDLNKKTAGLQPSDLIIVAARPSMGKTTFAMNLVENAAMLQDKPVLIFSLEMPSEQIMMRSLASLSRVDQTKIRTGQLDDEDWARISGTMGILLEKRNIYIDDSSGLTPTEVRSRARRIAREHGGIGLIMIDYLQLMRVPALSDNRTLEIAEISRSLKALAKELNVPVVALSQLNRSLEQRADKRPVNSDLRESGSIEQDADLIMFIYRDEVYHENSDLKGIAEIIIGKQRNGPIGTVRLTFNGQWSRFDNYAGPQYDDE
Chain of His6-Rep WT (P09980 whole entry): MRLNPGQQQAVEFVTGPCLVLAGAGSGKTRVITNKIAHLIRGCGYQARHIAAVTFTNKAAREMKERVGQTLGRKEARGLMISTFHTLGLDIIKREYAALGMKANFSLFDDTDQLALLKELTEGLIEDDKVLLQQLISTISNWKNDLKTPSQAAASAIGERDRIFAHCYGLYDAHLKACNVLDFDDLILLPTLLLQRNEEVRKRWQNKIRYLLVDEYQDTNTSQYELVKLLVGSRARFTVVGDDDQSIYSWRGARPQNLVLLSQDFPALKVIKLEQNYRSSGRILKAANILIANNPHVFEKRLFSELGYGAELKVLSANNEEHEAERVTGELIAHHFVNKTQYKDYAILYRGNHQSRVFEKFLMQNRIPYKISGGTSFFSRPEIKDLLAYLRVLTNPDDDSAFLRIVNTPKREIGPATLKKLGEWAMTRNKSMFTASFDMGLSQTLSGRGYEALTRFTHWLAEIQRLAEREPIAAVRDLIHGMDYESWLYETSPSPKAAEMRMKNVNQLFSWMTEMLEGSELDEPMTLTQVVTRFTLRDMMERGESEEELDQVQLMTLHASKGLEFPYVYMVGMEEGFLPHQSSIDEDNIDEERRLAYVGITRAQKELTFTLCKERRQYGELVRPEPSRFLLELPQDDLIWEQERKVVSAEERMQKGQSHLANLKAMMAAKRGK
Chain of His6-Rep ΔC33 (P09980 1-640, stated change not applied): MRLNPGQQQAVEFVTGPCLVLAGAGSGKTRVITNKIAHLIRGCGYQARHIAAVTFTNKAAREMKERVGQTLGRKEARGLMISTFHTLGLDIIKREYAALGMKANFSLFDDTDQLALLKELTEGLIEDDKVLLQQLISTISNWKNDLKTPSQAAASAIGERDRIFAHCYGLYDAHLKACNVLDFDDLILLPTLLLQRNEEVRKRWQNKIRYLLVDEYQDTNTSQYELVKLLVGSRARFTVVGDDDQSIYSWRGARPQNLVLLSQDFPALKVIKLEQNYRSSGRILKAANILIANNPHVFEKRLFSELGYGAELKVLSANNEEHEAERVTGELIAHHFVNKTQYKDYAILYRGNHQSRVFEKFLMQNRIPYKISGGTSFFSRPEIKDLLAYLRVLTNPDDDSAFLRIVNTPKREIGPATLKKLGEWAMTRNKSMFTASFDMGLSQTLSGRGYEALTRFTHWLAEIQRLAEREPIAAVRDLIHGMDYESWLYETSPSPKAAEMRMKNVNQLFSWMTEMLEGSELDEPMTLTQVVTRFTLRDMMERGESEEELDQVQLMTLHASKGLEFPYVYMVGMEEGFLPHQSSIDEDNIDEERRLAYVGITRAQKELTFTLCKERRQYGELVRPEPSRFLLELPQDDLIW
Chain of Rep (P09980 whole entry): as the sequence (P09980 whole entry) above

Substance | binding signal (min (mean binding lifetime)) [1] | further results
CACATGCTATGAGCTGTTGCAATCTCTCGTACAATTAATAGACTGGATGGTGGATGACAAAGCTCTACACTAGATACTCACAC (double strand) [gRNA80 / 83-mer target] | 8.6 | 
CACATGCTATGAGCTGTTGCAATCTCTCGTACAATTAATAGACTGGATGGTGGATGACAAAGCTCTACACTAGATACTCACAC (double strand) [gRNA20 / 83-mer target] | 1 | 
CACATGCTATGAGCTGTTGCAATCTCTCGTACAATTAATAGACTGGATGGTGGATGACAAAGCTCTACACTAGATACTCACAC (double strand) [gRNA40 / 83-mer target] | 1 | 
CACATGCTATGAGCTGTTGCAATCTCTCGTACAATTAATAGACTGGATGGTGGATGACAAAGCTCTACACTAGATACTCACAC (double strand) [gRNA60 / 83-mer target] | 8.3 | 
His6-Rep ΔC33 (from UniProt P09980 1-640) (domain or fragment) |  | mean total DNA product length after 3 min in the single-molecule stalled rolling-circle replication assay (template pre-incubated with the dCas9-cgRNA1-Atto647 roadblock), 20 nM Rep ΔC33 [2]: 2 kbp
His6-Rep WT (from UniProt P09980 1-673) (enzyme) |  | replication efficiency in the single-molecule stalled rolling-circle replication assay (dCas9-cgRNA1-Atto647 roadblock), 20 nM Rep WT [3]: 2%; mean total DNA product length after 3 min in the single-molecule stalled rolling-circle replication assay (template pre-incubated with the dCas9-cgRNA1-Atto647 roadblock), 20 nM Rep WT [2]: 65 kbp
Rep (from UniProt P09980) |  | Kd [4]: 90 nM

Reference: article PMC10123100, “Single-molecule visualization of stalled replication-fork rescue by the Escherichia coli Rep helicase” (Nucleic Acids Research, 2023)
